Data from paper PMC4427171.
Like-named read-outs stand apart in the source and are kept apart here.

Tests used:
[1] = molecular target: PfOPRTase 1–218(Δ37–58)-H6 (Plasmodium falciparum) (UniProt Q8I3Y0); experiment: crystal structure; hanging drop, 100 mM ammonium sulfate, 30% PEG 3350, 277 K; protein at 30 mg/ml; space group P212121, eight chains (four catalytic dimers) in the asymmetric unit
[2] = molecular target: PfOPRTase 1–218(Δ37–58)-H6 (Plasmodium falciparum) (UniProt Q8I3Y0); experiment: as above; remark: listed apart in the source

PfOPRTase 1–218(Δ37–58)-H6 (from UniProt Q8I3Y0 1-218) (enzyme)
stoichiometry N [1]: 4 | stoichiometry N [2]: 2
